Laboratory results published in patent publication US20210284734A1 (SYMPHOGEN A S, published 2021).

T1: human PD-1 ECD-Fc chimeric construct 2 (human, UniProt Q15116 21-170)
T1 construct: not shown: human IgG1 Fc, residues P101-K330
T1 chain: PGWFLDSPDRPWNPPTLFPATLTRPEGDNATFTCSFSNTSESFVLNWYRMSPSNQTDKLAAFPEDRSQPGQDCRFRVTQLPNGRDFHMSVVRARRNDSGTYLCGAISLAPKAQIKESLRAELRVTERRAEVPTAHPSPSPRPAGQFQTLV

T2: human PD-1 ECD-Fc chimeric construct 19 (human, UniProt Q15116 21-170)
T2 construct: not shown: human IgG1 Fc, residues P101-K330
T2 chain: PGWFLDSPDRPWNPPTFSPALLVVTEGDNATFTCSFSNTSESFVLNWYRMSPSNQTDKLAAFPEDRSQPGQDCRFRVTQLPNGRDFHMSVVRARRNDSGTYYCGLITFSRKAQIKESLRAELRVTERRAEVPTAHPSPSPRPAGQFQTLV

T3: human PD-1 ECD-Fc chimeric construct 3 (human, UniProt Q15116 21-170)
T3 construct: not shown: human IgG1 Fc, residues P101-K330
T3 chain: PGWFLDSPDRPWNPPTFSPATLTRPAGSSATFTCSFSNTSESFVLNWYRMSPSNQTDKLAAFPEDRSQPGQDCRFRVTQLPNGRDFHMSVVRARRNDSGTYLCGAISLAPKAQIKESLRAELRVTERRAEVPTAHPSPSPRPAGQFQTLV

T4: human PD-1 ECD-Fc chimeric construct 6 (human, UniProt Q15116 21-170)
T4 construct: not shown: human IgG1 Fc, residues P101-K330
T4 chain: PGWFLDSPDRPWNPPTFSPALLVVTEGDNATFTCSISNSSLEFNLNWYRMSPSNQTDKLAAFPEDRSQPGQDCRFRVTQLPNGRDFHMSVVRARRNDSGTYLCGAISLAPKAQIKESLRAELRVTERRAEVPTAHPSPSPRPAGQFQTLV

T5: human PD-1 ECD-Fc chimeric construct 11 (human, UniProt Q15116 21-170)
T5 construct: printed run together as P83IE84R; not shown: human IgG1 Fc, residues P101-K330
T5 chain: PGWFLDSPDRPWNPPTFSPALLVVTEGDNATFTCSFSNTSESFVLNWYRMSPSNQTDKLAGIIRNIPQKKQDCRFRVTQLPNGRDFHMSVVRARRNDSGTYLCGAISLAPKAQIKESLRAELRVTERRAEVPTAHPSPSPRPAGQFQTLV

T6: human PD-1 ECD-Fc chimeric construct 10 (human, UniProt Q15116 21-170)
T6 construct: printed run together as P83IE84R; not shown: human IgG1 Fc, residues P101-K330
T6 chain: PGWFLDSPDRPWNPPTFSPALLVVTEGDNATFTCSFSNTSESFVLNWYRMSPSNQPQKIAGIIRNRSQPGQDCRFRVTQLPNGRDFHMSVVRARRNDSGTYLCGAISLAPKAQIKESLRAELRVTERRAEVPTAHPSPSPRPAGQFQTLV


Tests used:
Experiment in all cases: SPR, Fab on captured PD-1-Fc
[1] = biological target: T1, human PD-1 ECD-Fc chimeric construct 2
Method: (§1) The human PD-1 Fc fusion constructs were harvested after 9 days and supernatants were tested for binding affinity to anti-PD-1 Fabs by Surface Plasmon Resonance (SPR). Culture supernatants containing PD-1 fusion proteins were immobilized onto an G-a-hu-IgG Fc SensEye® (Ssens BV, The Netherlands) for 15 minutes using a Continuous Flow Microspotter (CFM, Wasatch Microfluidics, Salt Lake City, US). After spotting, the SensEye® was positioned in an IBIS MX96 biosensor and captured proteins were fixed to the surface using FixIT kit (Ssens BV, The Netherlands). […] Fab association was performed for 15 minutes and antigen dissociation was performed for 30 minutes. The recorded binding responses were fitted to a simple Langmuir 1:1 binding model with Scrubber 2 software for calculation of the on-rate (kₒₙ or ka), off-rate (koff or kd) and affinity (KD) constants.
(§2) The change in binding affinity of Fab antibodies binding to the mutated PD-1 constructs compared to wild-type were expressed as the ratio of KD mutant/KD wild-type (normalized binding affinity).

[2] = biological target: T2, human PD-1 ECD-Fc chimeric construct 19
Method: as §1, §2

[3] = biological target: T3, human PD-1 ECD-Fc chimeric construct 3
Method: as §1, §2

[4] = biological target: T4, human PD-1 ECD-Fc chimeric construct 6
Method: as §1, §2

[5] = biological target: T5, human PD-1 ECD-Fc chimeric construct 11
Method: as §1, §2

[6] = biological target: T6, human PD-1 ECD-Fc chimeric construct 10
Method: as §1, §2

human PD-1 ECD-Fc D29A = biological target: T7, human PD-1 ECD-Fc D29A (human, UniProt Q15116 21-170)
T7 construct: not shown: human IgG1 Fc, residues P101-K330
T7 sequence (Q15116 21-170 D29A): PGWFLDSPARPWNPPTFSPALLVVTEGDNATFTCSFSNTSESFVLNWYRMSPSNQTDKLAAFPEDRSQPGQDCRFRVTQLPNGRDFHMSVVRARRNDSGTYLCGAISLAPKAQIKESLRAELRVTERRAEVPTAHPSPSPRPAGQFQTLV

human PD-1 ECD-Fc A154G = biological target: T8, human PD-1 ECD-Fc A154G (human, UniProt Q15116 21-170)
T8 construct: not shown: human IgG1 Fc, residues P101-K330
T8 sequence (Q15116 21-170 A154G): as the sequence (Q15116 21-170 D29A) above, with A9D, A134G counted along it

human PD-1 ECD-Fc V44A = biological target: T9, human PD-1 ECD-Fc V44A (human, UniProt Q15116 21-170)
T9 construct: not shown: human IgG1 Fc, residues P101-K330
T9 sequence (Q15116 21-170 V44A): as the sequence (Q15116 21-170 D29A) above, with A9D, V24A counted along it

human PD-1 ECD-Fc N58A = biological target: T10, human PD-1 ECD-Fc N58A (human, UniProt Q15116 21-170)
T10 construct: not shown: human IgG1 Fc, residues P101-K330

human PD-1 ECD-Fc L42A = biological target: T11, human PD-1 ECD-Fc L42A (human, UniProt Q15116 21-170)
T11 construct: not shown: human IgG1 Fc, residues P101-K330
T11 sequence (Q15116 21-170 L42A): as the sequence (Q15116 21-170 D29A) above, with A9D, L22A counted along it

human PD-1 ECD-Fc D26A = biological target: T12, human PD-1 ECD-Fc D26A (human, UniProt Q15116 21-170)
T12 construct: not shown: human IgG1 Fc, residues P101-K330
T12 sequence (Q15116 21-170 D26A): as the sequence (Q15116 21-170 D29A) above, with D6A, A9D counted along it

human PD-1 ECD-Fc P130A = biological target: T13, human PD-1 ECD-Fc P130A (human, UniProt Q15116 21-170)
T13 construct: not shown: human IgG1 Fc, residues P101-K330
T13 sequence (Q15116 21-170 P130A): as the sequence (Q15116 21-170 D29A) above, with A9D, P110A counted along it

human PD-1 ECD-Fc L128A = biological target: T14, human PD-1 ECD-Fc L128A (human, UniProt Q15116 21-170)
T14 construct: not shown: human IgG1 Fc, residues P101-K330

human PD-1 ECD-Fc P101A = biological target: T15, human PD-1 ECD-Fc P101A (human, UniProt Q15116 21-170)
T15 construct: not shown: human IgG1 Fc, residues P101-K330

human PD-1 ECD-Fc S71A = biological target: T16, human PD-1 ECD-Fc S71A (human, UniProt Q15116 21-170)
T16 construct: not shown: human IgG1 Fc, residues P101-K330
T16 sequence (Q15116 21-170 S71A): as the sequence (Q15116 21-170 D29A) above, with A9D, S51A counted along it

human PD-1 ECD-Fc T36A = biological target: T17, human PD-1 ECD-Fc T36A (human, UniProt Q15116 21-170)
T17 construct: not shown: human IgG1 Fc, residues P101-K330
T17 sequence (Q15116 21-170 T36A): as the sequence (Q15116 21-170 D29A) above, with A9D, T16A counted along it

human PD-1 ECD-Fc P152A = biological target: T18, human PD-1 ECD-Fc P152A (human, UniProt Q15116 21-170)
T18 construct: not shown: human IgG1 Fc, residues P101-K330
T18 sequence (Q15116 21-170 P152A): as the sequence (Q15116 21-170 D29A) above, with A9D, P132A counted along it

human PD-1 ECD-Fc P83A = biological target: T19, human PD-1 ECD-Fc P83A (human, UniProt Q15116 21-170)
T19 construct: not shown: human IgG1 Fc, residues P101-K330
T19 sequence (Q15116 21-170 P83A): as the sequence (Q15116 21-170 D29A) above, with A9D, P63A counted along it

human PD-1 ECD-Fc P160A = biological target: T20, human PD-1 ECD-Fc P160A (human, UniProt Q15116 21-170)
T20 construct: not shown: human IgG1 Fc, residues P101-K330

human PD-1 ECD-Fc P31A = biological target: T21, human PD-1 ECD-Fc P31A (human, UniProt Q15116 21-170)
T21 construct: not shown: human IgG1 Fc, residues P101-K330
T21 sequence (Q15116 21-170 P31A): as the sequence (Q15116 21-170 D29A) above, with A9D, P11A counted along it

human PD-1 ECD-Fc Q165A = biological target: T22, human PD-1 ECD-Fc Q165A (human, UniProt Q15116 21-170)
T22 construct: not shown: human IgG1 Fc, residues P101-K330

human PD-1 ECD-Fc D85A = biological target: T23, human PD-1 ECD-Fc D85A (human, UniProt Q15116 21-170)
T23 construct: not shown: human IgG1 Fc, residues P101-K330

Row | KD mutant/KD wild-type [1] | KD mutant/KD wild-type [3] | KD mutant/KD wild-type [4] | KD mutant/KD wild-type [5] | KD mutant/KD wild-type [6] | KD mutant/KD wild-type (human PD-1 ECD-Fc D29A) | KD mutant/KD wild-type (human PD-1 ECD-Fc A154G) | KD mutant/KD wild-type (human PD-1 ECD-Fc V44A) | KD mutant/KD wild-type (human PD-1 ECD-Fc N58A) | KD mutant/KD wild-type (human PD-1 ECD-Fc L42A) | KD mutant/KD wild-type (human PD-1 ECD-Fc D26A) | KD mutant/KD wild-type (human PD-1 ECD-Fc P130A) | KD mutant/KD wild-type (human PD-1 ECD-Fc L128A) | KD mutant/KD wild-type (human PD-1 ECD-Fc P101A) | KD mutant/KD wild-type (human PD-1 ECD-Fc S71A) | KD mutant/KD wild-type (human PD-1 ECD-Fc T36A) | KD mutant/KD wild-type (human PD-1 ECD-Fc P152A) | KD mutant/KD wild-type (human PD-1 ECD-Fc P83A) | KD mutant/KD wild-type (human PD-1 ECD-Fc P160A) | KD mutant/KD wild-type (human PD-1 ECD-Fc P31A) | Binder | further results
1 | 1 ratio | 0.7 ratio | 0.8 ratio | 0.8 ratio | 1 ratio | 1 ratio | 1 ratio | 9.9 ratio | 1 ratio | 2.2 ratio | 1.2 ratio | 0.9 ratio | 0.9 ratio | 0.9 ratio | 0.9 ratio | 0.9 ratio | 1 ratio | 0.9 ratio | 1 ratio | 1.1 ratio | 13112.15380 Fab (Fab, V domains shown) VH: EVQLLESGGGLVQPGGSLRLSCAASGFTFSSYNMFWVRQAPGKGLEFVAEISGSNTGSRTWYAPAVKGRATISRDNSKNTLYLQMNSLRAEDTAVYYCAKSIYGGYCAGGYSCGVGLIDAWGQGTLVTVSS VL: SYELTQDPAVSVALGQTVRITCSGGSSDYYGWFQQKPGQAPVTVIYYNNKRPSDIPDRFSGSSSGNTASLTITGAQAEDEADYYCGNADSSVGVFGSGTKVTVL | KD mutant/KD wild-type [2]: 0.8 ratio; KD mutant/KD wild-type (human PD-1 ECD-Fc Q165A): 1.1 ratio; KD mutant/KD wild-type (human PD-1 ECD-Fc D85A): 0.9 ratio
2 | 2.3 ratio | 1.3 ratio | 7.1 ratio | 17.7 ratio | 33.7 ratio | 1 ratio | 0.8 ratio | 1.4 ratio | 1.3 ratio | 1.3 ratio | 1.1 ratio | 105 ratio | 17.1 ratio | 1.1 ratio | 0.9 ratio | 1 ratio | 1.4 ratio | 1.5 ratio | 1 ratio | 1.1 ratio | 12819.17149 Fab (Fab, V domains shown, monomeric Fab fragment) VH: EVQLLESGGGLVQPGGSLRLSCAASGFTFTRYDMVWVRQAPGKGLEWVAGIGDSNKMTRYAPAVKGRATISRDNSKNTLYLQMNSLRAEDTAVYYCAKGSCIACWDEAGRIDAWGQGTLVTVSS VL: SYELTQDPAVSVALGQTVRITCSGGGSYDGSSYYGWYQQKPGQAPVTVIYNNNNRPSDIPDRFSGSSSGNTASLTITGAQAEDEADYYCGSYDRPETNSDYVGMFGSGTKVTVL | KD mutant/KD wild-type [2]: 175 ratio; KD mutant/KD wild-type (human PD-1 ECD-Fc Q165A): 1.1 ratio; KD mutant/KD wild-type (human PD-1 ECD-Fc D85A): 2.5 ratio
3 | 0.7 ratio | 0.6 ratio | 0.2 ratio | 5.4 ratio | 13.8 ratio | 0.9 ratio | 1 ratio | 0.8 ratio | 0.7 ratio | 0.5 ratio | 0.8 ratio | 0.5 ratio | 2.1 ratio | 1 ratio | 0.9 ratio | 1 ratio | 0.9 ratio | 0.8 ratio | 0.8 ratio | 1 ratio | 12865.17150 Fab (Fab, V domains shown, monomeric Fab fragment) VH: EVQLLESGGGLVQPGGSLRLSCAASGFDFSDHGMQWVRQAPGKGLEYVGVIDTTGRYTYYAPAVKGRATISRDNSKNTLYLQMNSLRAEDTAVYYCAKTTCVGGYLCNTVGSIDAWGQGTLVTVSS VL: SYELTQDPAVSVALGQTVRITCSGGGSSSYYGWYQQKPGQAPVTVIYDDTNRPSGIPDRFSGSSSGNTASLTITGAQAEDEADYYCGGYEGSSHAGIFGSGTKVTVL | binding result [2]: no binding (tested: 1 nM to 50 nM); KD mutant/KD wild-type (human PD-1 ECD-Fc Q165A): 1.1 ratio; KD mutant/KD wild-type (human PD-1 ECD-Fc D85A): 1.6 ratio
